Reference: patent publication US20250135022A1, “METHODS FOR THE USE OF A B7-H3 ANTIBODY-DRUG CONJUGATE IN COMBINATION WITH A PD-1 X CTLA-4 BISPECIFIC MOLECULE” (MACROGENICS, INC., priority 2022, published 2025)

Molecular target: T1, B7-H3 of cynomolgus monkeys (Macaca fascicularis, UniProt A0A7N9CYV2)
T1 sequence (A0A7N9CYV2 29-534): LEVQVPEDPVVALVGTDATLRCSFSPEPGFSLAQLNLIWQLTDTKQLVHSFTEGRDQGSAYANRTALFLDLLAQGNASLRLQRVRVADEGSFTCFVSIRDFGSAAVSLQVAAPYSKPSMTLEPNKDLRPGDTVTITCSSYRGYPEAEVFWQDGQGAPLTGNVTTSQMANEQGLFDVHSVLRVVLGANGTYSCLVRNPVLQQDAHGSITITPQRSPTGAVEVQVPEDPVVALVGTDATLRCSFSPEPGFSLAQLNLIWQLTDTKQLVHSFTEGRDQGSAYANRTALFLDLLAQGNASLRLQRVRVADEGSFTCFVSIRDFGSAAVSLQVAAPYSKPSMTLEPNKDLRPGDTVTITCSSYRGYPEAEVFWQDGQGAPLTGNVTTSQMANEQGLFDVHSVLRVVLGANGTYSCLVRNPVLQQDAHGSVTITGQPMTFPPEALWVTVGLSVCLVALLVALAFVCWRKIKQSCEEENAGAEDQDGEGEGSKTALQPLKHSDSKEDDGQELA
Experiment: Cross-reactivity of anti-B7-H3 antibody
Type: binding

B1: mAb-A: anti-B7-H3 antibody isolated from hybridoma cells; murine VL SEQ ID NO:15, VH SEQ ID NO:16 (antibody, V domains shown)
VH: EVQQVESGGDLVKPGGSLKLSCAASGFTFSSYGMSWVRQTPDKRLEWVATINSGGSNTYYPDSLKGRFTISRDNAKNTLYLQMRSLKSEDTAMYYCARHDGGAMDYWGQGTSVTVSS
VL: DIQMTQSPASLSVSVGETVTITCRASESIYSYLAWYQQKQGKSPQLLVYNTKTLPEGVPSRFSGSGSGTQFSLKINSLQPEDFGRYYCQHHYGTPPWTFGGGTNLEIK
modifications: Synthetic: amino acid sequence of the VH Domain of anti-B7-H3 mAb-A; Synthetic: amino acid sequence of the VL Domain of the murine anti-B7-H3 antibody mAb-A
For B1, the “cross-reactivity with B7-H3 of cynomolgus monkeys” value was “cross-reactive”.
